# Experimental data: article PMC3945083
# Columns and labels:
# PARP-1 (purified) = PARP-1 (purified) (UniProt P09874 1-1014); assay: pull-down
# Flag-PARP-1 = Flag-PARP-1 (UniProt P09874 1-1014); assay: EMSA
# Sequence of Flag-PARP-1 (P09874 whole entry): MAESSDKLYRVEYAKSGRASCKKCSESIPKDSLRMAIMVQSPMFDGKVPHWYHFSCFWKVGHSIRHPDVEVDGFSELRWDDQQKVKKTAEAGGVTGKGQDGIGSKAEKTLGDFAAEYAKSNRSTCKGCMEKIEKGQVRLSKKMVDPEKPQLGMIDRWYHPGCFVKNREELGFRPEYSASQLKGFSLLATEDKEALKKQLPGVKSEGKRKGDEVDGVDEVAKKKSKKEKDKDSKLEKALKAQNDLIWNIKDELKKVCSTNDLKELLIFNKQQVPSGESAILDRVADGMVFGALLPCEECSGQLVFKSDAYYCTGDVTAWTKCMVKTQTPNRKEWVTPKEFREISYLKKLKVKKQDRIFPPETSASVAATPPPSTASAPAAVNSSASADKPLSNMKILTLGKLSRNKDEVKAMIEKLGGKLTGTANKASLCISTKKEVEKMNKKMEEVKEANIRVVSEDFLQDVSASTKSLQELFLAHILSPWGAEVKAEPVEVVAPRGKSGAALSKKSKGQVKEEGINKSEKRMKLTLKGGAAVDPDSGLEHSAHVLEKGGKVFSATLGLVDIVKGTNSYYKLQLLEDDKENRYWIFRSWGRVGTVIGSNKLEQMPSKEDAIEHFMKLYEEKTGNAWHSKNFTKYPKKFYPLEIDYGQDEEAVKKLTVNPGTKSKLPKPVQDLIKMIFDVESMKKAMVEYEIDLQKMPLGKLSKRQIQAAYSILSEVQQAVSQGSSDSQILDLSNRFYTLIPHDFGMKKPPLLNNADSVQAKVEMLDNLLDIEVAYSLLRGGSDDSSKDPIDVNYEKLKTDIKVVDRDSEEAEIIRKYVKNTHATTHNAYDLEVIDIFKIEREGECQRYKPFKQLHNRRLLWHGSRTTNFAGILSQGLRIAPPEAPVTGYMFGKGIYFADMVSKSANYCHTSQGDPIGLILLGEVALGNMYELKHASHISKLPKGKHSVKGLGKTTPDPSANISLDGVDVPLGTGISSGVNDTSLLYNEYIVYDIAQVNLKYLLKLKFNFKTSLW
# Sequence of PARP-1 (purified) (P09874 whole entry): as above
binder,measurement,setting,value
WT NQO1-ARE (dsDNA) DNA 1: AAATCGCAGTCACAGTGACTCAGCAGAATCTGAGCCTAGGG DNA 2: CCCTAGGCTCAGATTCTGCTGAGTCACTGTGACTGCGATTT,binding result,PARP-1 (purified),binds
same,binding result,Flag-PARP-1,binds
